According to article PMC11088064 (BMC Immunology, 2024):

Legend:
hPD-1 on CHO cells [1] = target: T1, hPD-1 on CHO cells (human, UniProt Q15116); assay: cell-based or functional assay
hPD-1 on CHO cells [2] = target: T1, hPD-1 on CHO cells; assay: flow cytometry on cells; competition: PD-1-expressing CHO-S cells with serial dilutions of anti-PD-1 at 4 °C for 15 min, then human Fc (IgG1)-labeled PD-L1 at 4 °C for 1 h in PBS/2% BSA; bound PD-L1 detected with PE anti-human IgG1/3; details: one partner purified
mPD-1 on CHO cells = target: T2, mPD-1 on CHO cells (mouse, UniProt Q02242); assay: as above; details: one partner purified
T2 construct: also called mPD-1-expressing CHO cells; cellular mPD-1; source: CHO cells, stably transfected (pCMV3 vector), on cells

[3] = target: T3, hPD-1 P130A on HEK293T cells (Homo sapiens, UniProt Q15116, P130A); assay: flow cytometry on cells; shotgun mutagenesis alanine scan (Integral Molecular): hPD-1 wild type or mutants transiently expressed in HEK293 T cells, incubated with antibody, Alexa Fluor 488 secondary antibody; non-blocking control anti-PD-1 as reference; details: one partner purified
T3 construct: programmed cell death 1 (PD-1), human, alanine mutant of the shotgun mutagenesis library; source: HEK293 T cells, transiently transfected, on cells

[4] = target: T4, hPD-1 L128A on HEK293T cells (Homo sapiens, UniProt Q15116, L128A); assay: as above; details: one partner purified
T4 construct: programmed cell death 1 (PD-1), human, alanine mutant of the shotgun mutagenesis library; source: HEK293 T cells, transiently transfected, on cells

[5] = target: T5, hPD-1 I126A on HEK293T cells (Homo sapiens, UniProt Q15116, I126A); assay: as above; details: one partner purified
T5 construct: programmed cell death 1 (PD-1), human, alanine mutant of the shotgun mutagenesis library; source: HEK293 T cells, transiently transfected, on cells
T5 sequence (Q15116 25-288 I126A): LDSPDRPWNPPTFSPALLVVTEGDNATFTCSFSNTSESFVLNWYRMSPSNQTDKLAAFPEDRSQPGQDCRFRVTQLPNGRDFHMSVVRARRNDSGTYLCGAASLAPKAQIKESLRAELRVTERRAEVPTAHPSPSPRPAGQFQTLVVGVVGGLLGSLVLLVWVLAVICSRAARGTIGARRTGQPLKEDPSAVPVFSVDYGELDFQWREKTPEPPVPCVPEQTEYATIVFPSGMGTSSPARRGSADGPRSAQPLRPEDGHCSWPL

T1 sequence (Q15116 25-288): as the sequence (Q15116 25-288 I126A) above, with A102I counted along it
T3 sequence (Q15116 25-288 P130A): as the sequence (Q15116 25-288 I126A) above, with A102I, P106A counted along it
T4 sequence (Q15116 25-288 L128A): as the sequence (Q15116 25-288 I126A) above, with A102I, L104A counted along it
T2 sequence (Q02242 25-288): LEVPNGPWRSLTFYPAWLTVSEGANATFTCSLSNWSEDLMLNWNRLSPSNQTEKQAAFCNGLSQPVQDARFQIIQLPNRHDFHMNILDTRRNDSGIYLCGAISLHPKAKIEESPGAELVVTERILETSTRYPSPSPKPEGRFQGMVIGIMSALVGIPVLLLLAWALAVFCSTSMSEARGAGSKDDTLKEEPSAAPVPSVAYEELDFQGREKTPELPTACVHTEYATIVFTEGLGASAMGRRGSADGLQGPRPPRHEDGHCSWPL

B1: GNUV201 (antibody, V domains shown)
VH: QVQLVQSGAEVKKPGASVKVSCKASGYTFTGYWMHWVRQAPGQGLEWIGMIHPNSDTTTYNEKFKNRVTMTRDTSISTAYMELSRLRSDDTAVYYCAGTDQAAWFAFWGQGTTVTVSS
VL: DIVMTQTPLSLSVTPGQPASISCRSSQNIVHSQGDTYLEWYLQKPGQSPQLLIYKVSKRFSGVPDRFSGSGSGTDFTLKISRVEAEDVGVYYCFQGSHVPWTFGGGTKVEIK
notes: humanized VH: CDRs of mouse clone 1G1 grafted into human IgG framework, with select point mutations; human IgG4 heavy chain constant region, hinge-stabilised S228P variant; IgG4 (S228P); the data statement says that datasets are available on request; also called humanized GNUV201; anti-PD-1; copies: 2 + 2
reporter assay: luciferase (NFAT-RE) in Jurkat T cells expressing hPD-1 with human PD-L1 aAPC/CHO-K1 cells; IC50 of blocking hPD-1/hPD-L1 (hPD-1 on CHO cells [1]): 6.3 nM
IC50 (hPD-1 on CHO cells [2]): 9.9 nM
IC50 (mPD-1 on CHO cells): 6.7 nM
percent of WT PD-1 control binding [3]: 19.5%
percent of WT PD-1 control binding [4]: 38.5%
percent of WT PD-1 control binding [5]: 46.6%
